Source: PMC10212915, “An ancient metabolite damage-repair system sustains photosynthesis in plants” (Nature Communications, 2023)

Experiments:
Assay in all cases: malachite green phosphate release assay
Type in all cases: biochemical, Arabidopsis thaliana
Settings in all cases: MOPS-KOH pH 7.5, 100 mM KCl, 10 mM MgCl2, 25 °C
[1] = substrate: O=C(COP(=O)(O)O)[C@H](O)[C@H](O)COP(=O)(O)O
From the text: (§1) malachite green phosphate release assay on MBP-AtCbbYB

[2] = substrate: O=C(COP(=O)(O)O)[C@@H](O)[C@H](O)COP(=O)(O)O
From the text: as §1

[3] = substrate: O=C(COP(=O)(O)O)[C@H](O)[C@H](O)COP(=O)(O)O; remark: listed apart in the source
From the text: (§2) malachite green phosphate release assay on MBP-AtCbbYA

[4] = substrate: O=C(COP(=O)(O)O)[C@@H](O)[C@H](O)COP(=O)(O)O; remark: listed apart in the source
From the text: as §2

| Protein | Km [1] [µM] | kcat [1] [s⁻¹] | kcat/Km [1] [M⁻¹ s⁻¹] | Km [2] [µM] | kcat [2] [s⁻¹] | kcat/Km [2] [M⁻¹ s⁻¹] | Km [3] [µM] | kcat [3] [s⁻¹] | kcat/Km [3] [M⁻¹ s⁻¹] | Km [4] [µM] | kcat [4] [s⁻¹] | kcat/Km [4] [M⁻¹ s⁻¹] |
| --- | --- | --- | --- | --- | --- | --- | --- | --- | --- | --- | --- | --- |
| MBP-AtCbbYB (Arabidopsis thaliana) (protein) SKSRVSSPVSALPLRSLEALIFDCDGVILESENLHRQAYNDAFSHFDVRCPPSSSESLDWSLEFYDKFQNLVGGGKPKMRWYFKENGWPTSTIFDSPPQNDDDRAKLIDTLQDWKTERYKEIIKSGSVEPRPGVIRLMDEAKAAGKKLAVCSAATKSSVILCLENLIDIERFQGLDCFLAGDDVKEKKPDPSIYITAAEKLGVSVKDCLVVEDSVIGLQAATKAGMSCVITYTSSTSDQNFNDAIAVYPDLSNVKLKDLETLLQTIVTAA | 4840 ± 360 | 0.015 ± 0.002 | 3.2 ± 0.4 | 182 ± 30 | 0.54 ± 0.05 | 3000 |  |  |  |  |  |  |
| MBP-AtCbbYA (Arabidopsis thaliana) (protein) CSASSSLTTLPSALLFDCDGVLVDTEKDGHRISFNDTFKERDLNVTWDVDLYGELLKIGGGKERMTAYFNKVGWPEKAPKDEAERKEFIAGLHKQKTELFMVLIEKKLLPLRPGVAKLVDQALTNGVKVAVCSTSNEKAVSAIVSCLLGPERAEKIKIFAGDVVPKKKPDPAIYNLAAETLGVDPSKCVVVEDSAIGLAAAKAAGMTCIVTKSGYTADEDFENADAVFDCIGDPPEERFDLAFCGSLLRKQFVS |  |  |  |  |  |  | 4310 ± 110 | 0.043 ± 0.009 | 10 ± 2 | 40 ± 1 | 2.13 ± 0.04 | 53000 ± 2000 |
